Data as given in PMC10482006.

Target: Kcnj13 (Kir7.1) from D. rerio fused to mCherry (D. rerio)
Test: mass photometry; OneMP mass photometer (Refeyn), buffer E, sample diluted 1:10 immediately before analysis, mass calibrated with NativeMark; protein solubilised in DDM with CHS

stoichiometry N: 4
Substance: Kcnj13 (Kir7.1) from D. rerio fused to mCherry (natural protein)
